Where “and” joins values, the source holds several entries; their conditions need not be identical. Equal values may be shown once. Read-outs that look alike come from different tables or passages of the source.

Data set [1] concerns the molecule itself. Put plainly: SEC-SAXS.
Data set [2] deals with the molecule itself. The experiment in a line: SEC-SAXS. The source holds these as a separate data set.

B1: C-phycocyanin (αβ) monomer from Spirulina platensis (complex)
chain 1: not shown
chain 2: MFDAFTKVVSQADTRGEMLSTAQIDALSQMVAESNKRLDAVNRITSNASTIVSNAARSLFAEQPQLIAPGGNAYTSRRMAACLRDMEIILRYVTYAVFAGDASVLEDRCLNGLRETYLALGTPGSSVAVGVGKMKEAALAIVNDPAGITPGDCSALASEIASYFDRACAAVS
modifications: open-chain tetrapyrrole chromophore cofactors attached covalently | open-chain tetrapyrrole chromophore cofactors attached covalently
For B1, the “stoichiometry N” value was 12 and 24 in the data set “SEC-SAXS [1]”; 3 in the data set “SEC-SAXS [2]”.
